Test results taken from the nanobody polyreactivity screen of Harvey et al. (2022).

Assay: yeast display, Sf9 membrane polyspecificity reagent, FACS + sequencing; frameworks hold sequencing errors
Procedure, shortened: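 After 36–48 hours of galactose induction, yeast (Saccharomyces cerevisiae BJ5465) displaying a synthetic nanobody library were stained at 4 °C for 1 hour with 10% biotinylated, detergent-solubilized Sf9 membrane reagent. Streptavidin microbeads enriched the stained cells before FACS sorting into low and high (top ~1%) gates on anti-HA and streptavidin fluorescence. Each clone's polyreactivity label reflects its gate of origin.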
With “QDQHVESGGGLVQAGGSLRLSCAASGSTFTGYDMGRYRQAPGKERELVAAISWNGGSTYYADSVKGRFTISRDNAKNTVYLQMNSLKPEDTAVYYCAKVTLTHSRFRYYYWGQGTQVTVSS” the “polyreactivity (PSR sort gate)” value was “high polyreactivity”.
In the case of “QDQHVESGGGLVQAGGSLRLSCAASRRTIDLYAMGWYRQAPGKERELVAAITKGGGSTYYADSVKGRFTISRDNATNTVYLQMNSLKPEDTAVFYCAARKYKRIYRISSGIGYYWGQGTQVTVSS”, the “polyreactivity (PSR sort gate)” value is reported as “high polyreactivity”.
With “QDQHVESGGGLVQAGGSLRLSCDASGFIFSYYTMGCYRQAPGKERELVAAIRSSGGSTYADSVKGRFTISRDNAKNTVYLQMTSLKPEDTAVYYCAAVQTWRWVYARDYWGQGTQVTVSS” the “polyreactivity (PSR sort gate)” value was “high polyreactivity”.
For “QDQHVESGGGLVQARGSLRLSCAASGRIFANKAMGRYRQAPGKERELVAAISRSGVSTYYADSVKGRFTISRDNAKNTVYLQMNSLKPEDSAVYYCAARWRSGFTSGDDWGQGTQVTVSA”, the “polyreactivity (PSR sort gate)” value was “low polyreactivity”.
For “QDQHVESGGGLVQARGTLRLSCAASGFTFYHYAMGWSRQAPGTERELVAGISHRGASTYYADSVKGRFTISRDNAKNTVYLQMNSLKPEDTAVYYCNAYRPYRNHALIGDGYWGQGTQVTVSS”, the “polyreactivity (PSR sort gate)” value was “high polyreactivity”.
For “QDQHVESVGGLVQAGGGLPLSCAASGRTFTYNAMGWYRQPPGKERELVAAITSGGTTNYADSVKGRFTISRDNAKNTVYLQMNSLKQEDTAVYYCAARRVYYSYRRYYYWGQGTQVTVSS”, the “polyreactivity (PSR sort gate)” value was “low polyreactivity”.
In the case of “QDQHVETGGGLVQAGGSLRLSCAASGSIFFLYMGWYRKAHGKETELVATISSGGSTNYADSVMGRFTISRDNAKHTVYLQMNSLKPVATAVYYFNARGSERLDTYSLYDYWGQGTQVTVSS”, the “polyreactivity (PSR sort gate)” value is reported as “low polyreactivity”.
For “QDQLEDSGGGLVQAGGSLRLSCAASGRTFTLYAMGWSRQAPGKERELVASISRSGGSTYYADSVKGRFTISRDNAKNTVYLQMNSVKPEDTAVDYCAARRFAWLFIYDYWGQGTQVTVSS”, the “polyreactivity (PSR sort gate)” value was “high polyreactivity”.
In the case of “QDQLEESGGCLVQAGGSLRLSCAASGRIFYGYVMRWYRQAPGKERELVAAINQSGTSTYYADSVKGRFTISRDYAKNTVYLQMNSLKPEDTAVYYCAKDWAYRRHWVGFYYWGQGTQVTVSS”, the “polyreactivity (PSR sort gate)” value is reported as “low polyreactivity”.
With “QDQLEESGGGLVQAGGSLRLSCAASGRNFYGYVMGWYRQAPGKERELVAAISSGGSTYYADSVKGRFTISRDNAKNTVYLQMNSLKPEDTAVYYCNADWKSYRGPKFDYWGQGTQVTVSS” the “polyreactivity (PSR sort gate)” value was “low polyreactivity”.
For “QDQLEESGGGLVQAGGSLRLSCAATGITFSSNAMGWYRQAPGKERELVAAISWSGGSTYYADSVKGRFTISRDYAKNTVYLQMNSLKPEDTAVYYCNASKHNPYGGDYWGQGTQVTVSS”, the “polyreactivity (PSR sort gate)” value was “high polyreactivity”.
In the case of “QDQLGDSGGGLVQAGGSLRLSCAASGFTFGKYAMGWYRQAPGKERELVAAISWSGASTYYADSVKGRFTISRDNAMNTVYLQMNSLKAEDTALYYCAKRDYSYPWFRDYYYWGQGTLVTVSS”, the “polyreactivity (PSR sort gate)” value is reported as “low polyreactivity”.
For “QDQLGDSGGGLVQAGGSLRLSCAASGSTYSVYTMGWYRQAPGKERELVAGITSNAGSTYYADSVKGRFTISRDNAMNTVYLEMNRLKPEDTAVYYCNADRWVRTTYDYWGQGTQVTVSS”, the “polyreactivity (PSR sort gate)” value was “high polyreactivity”.
In the case of “QDQLVDSGAGLLQAGGSLRLSCAASGFTFYGYAMGWYRQAPGKERELVASISWSGGTTYYADSVKGRFTISRDNAKNTVYLQMNSLKPEDTAVYYCNAVRYRYGVFPYYYWGQGTQVTESS”, the “polyreactivity (PSR sort gate)” value is reported as “high polyreactivity”.
In the case of “QDQLVDSGGGLVQAGGSLRLICAASGRIFHCYAMGWYRQAPGKERELVAAIRASGGRTYYADSVKGRFTISRDNAKNTVYVQMNSLKPEDPAVYYCGADSVKYGGDYWGQGTQVTVSS”, the “polyreactivity (PSR sort gate)” value is reported as “high polyreactivity”.
In the case of “QDQLVDSGGGLVQAGGSLRLSCAASGFIFWYYAMGWYRQEPGKERELVAAITSGGNTNYADSVKGRFTISRDNAKNTFYLQMNSLKPEDTAVYYCATGRASGREHDSWGHGTQVTVSS”, the “polyreactivity (PSR sort gate)” value is reported as “low polyreactivity”.
For “QDQLVDSGGGLVQAGGSLRLSCAASGRTFESYAMGWYRQAPGKERELVAAISYSGGSTYYADSVKGRFTISRDNAKNTVYLQMNSLKPEDTAVYYCAVRWRYKYDYWGQGTQVTVSS”, the “polyreactivity (PSR sort gate)” value was “high polyreactivity”.
For “QDQLVDSGGGLVQAGGSLRLSCAASGSTGTYMGWYRQAPGKERELVAAIDNICDNTYNADSVKGRFTISRDNAKNTVYLQMNSLIPEDSAVYYCAADYYVYYPWLFEYDYWGQGTQVTVSS”, the “polyreactivity (PSR sort gate)” value was “low polyreactivity”.
For “QDQLVDSGGGLVQAGGSLRLSCDASGIFDYYVMGWYRQAPGTERELVAAISKSVGSTYYADSVKGRFTISRDNAKNTVYLQMNSLKPEDTAVYYCAVENRYRFGYWGQGTQVTVSS”, the “polyreactivity (PSR sort gate)” value was “low polyreactivity”.
With “QDQLVDSGGGLVQAGGSLRLSSSASGLIFYKYAMGWYRQAPGKERELVAAISSSGGSTYYADSVKGRFTISRDTAKITVYLQMNSLKPDDTAVYYCAARTNRRGYNYWGQGTQVTVSS” the “polyreactivity (PSR sort gate)” value was “high polyreactivity”.
In the case of “QDQLVEAGGGLVQAGGSLRLSCAASGRIFYPDAMVWYRQAPGKERELVAAIRRSGVDTYYADSVKVRFTISRDNAKNTVSLQRNSLKPEDTAVYYCAADPYWFFPHYDSWGQGTQVTVSS”, the “polyreactivity (PSR sort gate)” value is reported as “low polyreactivity”.
With “QDQLVESAAGLVQAGGSLRLSCAASGRTLYTNALGWYIQAPGKERELVAAISSDSSTKYADSVKGRFTISRDNAKNTVYLQMNSLKPEDTAVYYCARRGAFYYLYGHQYALYDYWGQGTQVTVSS” the “polyreactivity (PSR sort gate)” value was “low polyreactivity”.
In the case of “QDQLVESAGGLVQAGGSLRLSCAASGRTFYFYTMGWYRQAPGKESELVATAITSGGSTNYADSVKGRFTISRDNAKNTVYLQMNSLKPEDTAVYYCAAVPTEFGNRLEYDYWGQGTQVTVSS”, the “polyreactivity (PSR sort gate)” value is reported as “low polyreactivity”.
In the case of “QDQLVESAGGLVQAGGSRRLSCAASGFTFYRNAMGCYRQAPGKERELVAAISITGGRTYYADSVKGRFTISRDNAKNTVYLQMNSLIPEDTAVYYCAKDRQRYGGDFDYWGQGTQLTVSS”, the “polyreactivity (PSR sort gate)” value is reported as “high polyreactivity”.
For “QDQLVESCGGLVPAGGSLRLSCPASGPIFTYYTMGSYRQAPGKERELVAAITVRGGRTYYADSVKGRFTISRDNEKNTVYLQMNSLKPEDTAVYYCAARGLVRSYDYWGQGTQVSVSS”, the “polyreactivity (PSR sort gate)” value was “high polyreactivity”.
In the case of “QDQLVESDAGLVQAGGSLRLSCAASGRIFLGNAMGRSIQPPGNERELVAAITYSGRSTYYSDSVKGRLTISRDNAKNTLYLQMNSLKPEDTAVYYCAARQYWTTDLPFQRYYYWGPGTQVTVSS”, the “polyreactivity (PSR sort gate)” value is reported as “low polyreactivity”.
For “QDQLVESGACLVQAGGRLRLSCAASGFTFYYNAMGWYRQAPGKEREFVAAISRSGGSTTYADSVKGRFTISRDNAMNTGFLEMNSLKPEDTAVYYCNARRYRCKSYDYWGQGTQVTVSS”, the “polyreactivity (PSR sort gate)” value was “high polyreactivity”.
For “QDQLVESGGALVQAGRSLRLSCAASGIIYIYYAMGWYIQAPGKERELVAAISGSGDSTYYADSVKGRFTISRDNAKNTVYLQMNSLKPEDTAVYYCARRSPNPYSIYYYWGQGTQVTVSS”, the “polyreactivity (PSR sort gate)” value was “high polyreactivity”.
For “QDQLVESGGCLVQAGGSLRLRCAASGITFDRYTMGWYRQAPGKERELVAAIRSGGGTYYADSVKGRFTISRDNAKNTVYLQMNSLKPEDTAVYYCAATRVSPSQYLRYYYWGQGTQVTVSS”, the “polyreactivity (PSR sort gate)” value was “high polyreactivity”.
For “QDQLVESGGCLVQAGGSLRLSCAASGSTFGYNVMGRYRQAPGKERELVAAISSSGGSTYYADSVKGRFSISRDNAKNTVYLQMNSLKPEDTAVYYCARSTYPYRYGYWGQGTQVTVSS”, the “polyreactivity (PSR sort gate)” value was “high polyreactivity”.
In the case of “QDQLVESGGCLVQAGGSLRLSCAASGSTFPIYAMGWYRQEPGKERELVAPITWNGGRTYYADSVKGRFTISRDNAKNTVYLQMNSLKPEDTAVYYCNALYYHNLEGNYWGQGTQVTVSS”, the “polyreactivity (PSR sort gate)” value is reported as “high polyreactivity”.
In the case of “QDQLVESGGCLVQAGLSLRLSCAASGSTFGPYAMGWYRQAPGKERELVADISGGSTNYADSVKGRFTISRDNAKNTVYLQLNSLKPEDTAFYYCATDDHVETVRRLYGDWGQGTQVTVSS”, the “polyreactivity (PSR sort gate)” value is reported as “low polyreactivity”.
For “QDQLVESGGGFVQAGGSLRLSCAASGSIFLINAMGWYRQAPGKERELVAAISWRGGTTYYADSVKGRFTISRDNAKNSVYLQLNSLKPEDTAVYYCAAYGGRFRGPTRYDYWVQGTQVTVSS”, the “polyreactivity (PSR sort gate)” value was “high polyreactivity”.
With “QDQLVESGGGIVQAGGSIRLSCAASGNTFGWYAMGWYRKAPGKERELVASISSSGSTNYADSVKGRFTISRDNAKNTVYLQMNSLKPEDTAVYYSNADLTQYLGPVYEYVYWGQGTQVTVSS” the “polyreactivity (PSR sort gate)” value was “low polyreactivity”.
With “QDQLVESGGGIVQAGGSLRLSCAASGFTFFANTMGWSRQAPGKERELVAVISSTVGYTYYADSVKGRFTISRDNAKNTVYLQMNSLKPEDTAVYYCAAKSIYDGFPYYLFDYWGQGSQVTVSS” the “polyreactivity (PSR sort gate)” value was “high polyreactivity”.
With “QDQLVESGGGIVQAGGSLRLSCAASGSTIFYYAMGWYRQAPGKERELVAASSQRGGSTRYADSVKGRFTISRDNAKNTVYLQINSLKPEDSAVYYCAAARSPYKYSYWGQGTQVTVSS” the “polyreactivity (PSR sort gate)” value was “high polyreactivity”.
For “QDQLVESGGGIVQAGGSLRLSCAASGSTIPSYAMGWYRQAPGKERELVASITYSDGTTRYADSVKGRFTISRDNAKNTVCLQMNRLKPVDTAVYYCNAVYDREGMDYWGQGTQVTVSS”, the “polyreactivity (PSR sort gate)” value was “low polyreactivity”.
With “QDQLVESGGGLDQAGGSLRLSGAASGGILPRYAMGWYRQAPGKERELVAGITRGGSTYYADSVKGRFSISRDNAKNTVYLQMNSLKPEDTAVYYCAKYGYQTGIFYYWGQGTQVTVSS” the “polyreactivity (PSR sort gate)” value was “high polyreactivity”.
With “QDQLVESGGGLFQAGGSLRLSCAASGSIFGHYAMGWYRQAPGKERELVAAISWRGGSTYYADSVKGRFTISRDNAKNTVYIQMNSLKPEDTAVYYCAADRWDKAYDYWGQVTQVTVSS” the “polyreactivity (PSR sort gate)” value was “low polyreactivity”.
For “QDQLVESGGGLFQEGGSLRLSCSASGSTFWVNTIRWYRQAPGKATELVADISSGGNTYYAHSVKGRFTISRDNAKNTVYLQMNSLKTEDTAVYYCNADPFTRWVIRDDYGGQGTQVTVSS”, the “polyreactivity (PSR sort gate)” value was “low polyreactivity”.
In the case of “QDQLVESGGGLLQAGGSLRLSCASSGSIFANYVMGWYRQAPGKEREYFAGISRSGGSTYYADSVKGRFKISRDNAKNTVYLQMTSLKPEDTAVYYCNAGAGQRVSGHSFEYWGQGTQVTVSS”, the “polyreactivity (PSR sort gate)” value is reported as “high polyreactivity”.
In the case of “QDQLVESGGGLVHAGGSLRLSCAASGRTFFVYAMGWYRHAPGKEREMVANINQGGGSTSYADSVKGRFTISRDNAKNNVYLQMNSLKPEDTAVYYCNADHYGIGYDPVPLGFVGYDYWGQGTQVTVSS”, the “polyreactivity (PSR sort gate)” value is reported as “low polyreactivity”.
In the case of “QDQLVESGGGLVPAAGSLRLSCASSGFSFRRNAMGCYRQAPGKEREFVAGITSGGSTYYADSVKGRFTISRDNAKNTVYLLLNSLKPEDTAVYFCAATYRRRYGYWGQGTQVTVSS”, the “polyreactivity (PSR sort gate)” value is reported as “high polyreactivity”.
